Results on 2 molecules are retold here after PMC4490372, “Architecture of TFIIIC and its role in RNA polymerase III pre-initiation complex assembly” (Nature Communications, 2015).

Experiment [1] addresses T1, τ131 (123–566), TPR array, wild type (S. cerevisiae, UniProt P33339 123-566).
T1 construct: also called τ131 TPR array; source: E. coli BL21 Star (DE3) pRARE, purified (Ni-NTA, TEV cleavage, S200 SEC); not shown: His6, N-terminal, cleaved
T1 sequence (looked up): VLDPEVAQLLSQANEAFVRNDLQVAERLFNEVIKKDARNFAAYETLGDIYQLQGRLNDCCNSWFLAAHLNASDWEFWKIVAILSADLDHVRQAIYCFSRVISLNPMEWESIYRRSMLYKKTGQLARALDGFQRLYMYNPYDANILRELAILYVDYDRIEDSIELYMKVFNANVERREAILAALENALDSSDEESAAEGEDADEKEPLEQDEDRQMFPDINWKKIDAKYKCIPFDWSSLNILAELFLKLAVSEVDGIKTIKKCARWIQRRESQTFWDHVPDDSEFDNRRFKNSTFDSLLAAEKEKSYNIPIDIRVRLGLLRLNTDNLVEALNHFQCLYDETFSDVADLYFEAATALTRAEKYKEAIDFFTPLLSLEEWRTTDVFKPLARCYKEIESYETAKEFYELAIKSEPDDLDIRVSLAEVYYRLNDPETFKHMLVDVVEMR
Description: ITC; MicroCal ITC200; 15 μM τ138 in the cell, 150 μM τ131 in the syringe; 20 mM Tris pH 7.5, 150 mM NaCl, 2 mM β-mercaptoethanol; 25 °C. The following applies: both partners purified. On the technique in general: In ITC the heat of successive injections is recorded.

In experiment [2] the target is T2, τ138 (Tfc3), τB subunit of endogenous S. cerevisiae TFIIIC (S. cerevisiae, UniProt P34111 1-1160).
T2 construct: τ138 (Tfc3), subunit of S. cerevisiae TFIIIC, endogenous subunit in the purified complex; source: endogenous, purified from S. cerevisiae strain SC2342 as part of TFIIIC (TAP tag on τ60)
T2 sequence (looked up): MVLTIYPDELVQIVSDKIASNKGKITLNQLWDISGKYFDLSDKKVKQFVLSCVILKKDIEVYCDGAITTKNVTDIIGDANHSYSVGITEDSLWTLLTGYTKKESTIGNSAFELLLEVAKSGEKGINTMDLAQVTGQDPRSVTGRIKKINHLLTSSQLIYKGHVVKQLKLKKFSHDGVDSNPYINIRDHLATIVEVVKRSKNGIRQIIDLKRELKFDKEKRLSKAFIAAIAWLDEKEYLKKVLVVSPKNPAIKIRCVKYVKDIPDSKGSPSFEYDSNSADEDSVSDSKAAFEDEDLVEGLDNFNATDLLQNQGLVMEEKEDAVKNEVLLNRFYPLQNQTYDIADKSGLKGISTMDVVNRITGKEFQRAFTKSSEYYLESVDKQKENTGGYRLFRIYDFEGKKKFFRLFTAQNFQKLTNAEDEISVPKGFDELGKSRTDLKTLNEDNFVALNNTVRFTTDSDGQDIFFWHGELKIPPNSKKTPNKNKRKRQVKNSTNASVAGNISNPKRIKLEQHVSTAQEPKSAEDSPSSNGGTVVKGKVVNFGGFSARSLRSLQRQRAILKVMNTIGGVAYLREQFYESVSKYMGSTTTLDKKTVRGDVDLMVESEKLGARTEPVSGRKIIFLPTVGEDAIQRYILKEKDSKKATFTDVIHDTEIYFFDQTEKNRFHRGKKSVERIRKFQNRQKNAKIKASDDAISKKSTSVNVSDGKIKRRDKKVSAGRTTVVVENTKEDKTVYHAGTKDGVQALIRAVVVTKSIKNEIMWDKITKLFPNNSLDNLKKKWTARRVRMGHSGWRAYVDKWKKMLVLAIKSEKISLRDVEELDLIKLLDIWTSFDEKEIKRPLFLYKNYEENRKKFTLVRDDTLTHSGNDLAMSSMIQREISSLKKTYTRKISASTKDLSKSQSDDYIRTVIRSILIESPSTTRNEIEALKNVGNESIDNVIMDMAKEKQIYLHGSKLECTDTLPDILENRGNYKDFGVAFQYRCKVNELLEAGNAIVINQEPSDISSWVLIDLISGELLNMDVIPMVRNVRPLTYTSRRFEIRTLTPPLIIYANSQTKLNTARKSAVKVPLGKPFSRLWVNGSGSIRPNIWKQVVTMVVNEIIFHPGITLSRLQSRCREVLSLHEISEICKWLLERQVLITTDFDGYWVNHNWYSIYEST
The experiment in a line: cross-linking; XL-MS: purified endogenous TFIIIC (30 μg, 1 μg/μl) cross-linked with H12/D12 DSS to 2 mM, 40 min at 37 °C; ld-score >25. The following applies: both partners purified.

B1: τ138 construct with residues 682–693 removed (domain or fragment)
chain: SARSLRSLQRQRAILKVMNTIGGVAYLREQFYESVSKYMGSTTTLDKKTVRGDVDLMVESEKLGARTEPVSGRKIIFLPTVGEDAIQRYILKEKDSKKATFTDVIHDTEIYFFDQTEKNRFHRGKKSVERIRKFQN
In general, Kd refers to the concentration at which binding is half-saturated. A low value points to tighter binding. For B1, in experiment [1], the Kd is ~2600 nM.

B2: τ131 (Tfc4), τA subunit of endogenous S. cerevisiae TFIIIC (natural protein, UniProt P33339 1-1025, looked up)
chain: MAAGKLKKEQQNQSAERESADTGKVNDEDEEHLYGNIDDYKHLIQDEEYDDEDVPHDLQLSEDEYNSERDSSLLAEFSDYGEISEDDEEDFMNAIREASNFKVKKKKKNDKGKSYGRQRKERVLDPEVAQLLSQANEAFVRNDLQVAERLFNEVIKKDARNFAAYETLGDIYQLQGRLNDCCNSWFLAAHLNASDWEFWKIVAILSADLDHVRQAIYCFSRVISLNPMEWESIYRRSMLYKKTGQLARALDGFQRLYMYNPYDANILRELAILYVDYDRIEDSIELYMKVFNANVERREAILAALENALDSSDEESAAEGEDADEKEPLEQDEDRQMFPDINWKKIDAKYKCIPFDWSSLNILAELFLKLAVSEVDGIKTIKKCARWIQRRESQTFWDHVPDDSEFDNRRFKNSTFDSLLAAEKEKSYNIPIDIRVRLGLLRLNTDNLVEALNHFQCLYDETFSDVADLYFEAATALTRAEKYKEAIDFFTPLLSLEEWRTTDVFKPLARCYKEIESYETAKEFYELAIKSEPDDLDIRVSLAEVYYRLNDPETFKHMLVDVVEMRKHQVDETLHRISNEKSSNDTSDISSKPLLEDSKFRTFRKKKRTPYDAERERIERERRITAKVVDKYEKMKKFELNSGLNEAKQASIWINTVSELVDIFSSVKNFFMKSRSRKFVGILRRTKKFNTELDFQIERLSKLAEGDSVFEGPLMEERVTLTSATELRGLSYEQWFELFMELSLVIAKYQSVEDGLSVVETAQEVNVFFQDPERVKMMKFVKLAIVLQMDDEEELAENLRGLLNQFQFNRKVLQVFMYSLCRGPSSLNILSSTIQQKFFLRQLKAFDSCRYNTEVNGQASITNKEVYNPNKKSSPYLYYIYAVLLYSSRGFLSALQYLTRLEEDIPDDPMVNLLMGLSHIHRAMQRLTAQRHFQIFHGLRYLYRYHKIRKSLYTDLEKQEADYNLGRAFHLIGLVSIAIEYYNRVLENYDDGKLKKHAAYNSIIIYQQSGNVELADHLMEKYLSI
notes: τ131 (Tfc4), subunit of S. cerevisiae TFIIIC, endogenous subunit in the purified complex; Endogenous subunit; source: endogenous, purified from S. cerevisiae strain SC2342 as part of TFIIIC (TAP tag on τ60)
Turning to B2, the binding result in experiment [2] was “binds”.
